From patent publication US11160869B2 (priority 2019, dated 2021)

Legend:
[1] = Lyophilization buffer screens: HMW/dimer/monomer by SE-HPLC before and after lyophilization; assay type: physicochemical
Experimental: Size exclusion chromatography (SE-HPLC) can be used to characterize the size distribution of the IL-10 delivery construct. The percentage of IL-10 delivery construct found in dimer, monomer, and aggregate forms in a liquid composition or a lyophilized composition if reconstituted in a liquid can be determined by SEC-HPLC (FIG. 34).
Further testing based on the results from the initial liquid formulation screen, initial lyophilization feasibility studies were conducted using the conditions in TABLE 9. Glycine and mannitol, known to be useful in the lyophilization of proteins as […] bulking agents were added to this screen, histidine at pH 7.0 added to provide a more granular evaluation of the effect of pH in the 7.0-7.5 range, and trehalose was added as an option to sucrose as an osmolyte. FIGS. 21 and 22 show the percentage of target constructs in the dimer form before and after incubation at 25° C. for 3 days (FIG. 21) and before and after 5 freeze/thaw cycles (FIG. 22).
Based on the results from this initial study a second lyophilization screen was conducted using the formulations listed in TABLE 10.

[2] = Compression force screening, tablet properties and dimer recovery on dissolution; assay type: physicochemical; conditions: F1 and F2 tablets
Experimental: Various compression forces were used to create F1 tablets (TABLE 31) and F2 tablets (TABLE 32). Dimer purity of the target construct was also examined following compaction into a tablet. […] Dimer recovery was also assessed following dissolution of various tablets at pH 7.0 (FIGS. 20A-20D).
An additional tablet (F3) was created, which was similar to an F1 tablet but with glyceryl dibehenate in place of magnesium stearate (TABLE 33). This substitution was made due to incompatibility of magnesium stearate in dissolution of target constructs in solution.

[3] = tested on: colonic tissue; assay: Pan-colonic administration in NHP: colonic biopsies (IL-10, IL-1Ra, pSTAT3/STAT3, cytokines, gene expression); assay type: in vivo, cynomolgus monkeys
Experimental: IL-10 delivery construct solution (at concentrations of 0.1, 0.3 and 1.0 mg/mL for the low, mid and high-dose groups respectively) was administered via the rectal route using sigmoidoscopy and a syringe connected to a spray nozzle with a 360° spray pattern. Serial biopsy samples were collected by sigmoidoscopy (pre-dose, 0.25, 0.5, 0.75, 8 and 24-28 hours post dose). Serial plasma samples from 0 min pre-dose to between 24-28 hours post-dose were collected for analysis for the IL-10 delivery construct.
Phosphorylation of STAT3 is an early downstream event following IL-10 receptor activation.
Colonic biopsies at each tissue timepoint were analyzed for local concentration of IL-10 delivery construct, total IL-10, IL-1Ra, soluble cytokines, activation of STAT3 and gene expression following administration of the IL-10 delivery construct. […] In addition, STC1, MTNR1A and VNN2 encode proteins that suppress the NFkβ signaling pathway, a pathway through which key pro-inflammatory cytokines are regulated. […] This is consistent with the ability of IL-10 to suppress these cells' activation or differentiation towards a pro-inflammatory immune phenotype.

[4] = Purification process trains with S-650F cation exchange: yield, recovery, purity, endotoxin
Experimental: Refolding was carried out at 4° C. in a refolding solution containing 1 mM reduced glutathione, 0.5 mM oxidized glutathione, 1M Arginine-HC, 250 mM sucrose, 100 mM Tris pH 8.5 at 4° C., and 2 mM EDTA. […] Buffer A for the CHT bind/elute step in Table 56 may also comprise 25 mM Tris, pH7.5, 300 mM NaCl, 5.0 mM NaPi, 0.5 mM CaCl2. Columns used are described in Table 58.
The yield, recovery, and purity of the IL-10 delivery construct was assess after each step, and after each process train.
It was surprising that a cation exchange resin was useful in the purification of the IL-10 delivery construct as cation exchange resins are negatively charged, and thus bind to proteins with a positive charge. Here, the IL-10 delivery construct has a calculated isoelectric point (pI) of 5.49, and thus is anticipated to have a negative charge under conditions traditionally used in a cation exchange chromatography.

[5] = molecular target: T1, IL-10RA and IL-10RB (Homo sapiens, UniProt Q08334+Q13651); assay: IL-10 receptor dimerization luminescence assay in engineered U2OS cells; conditions: read-out: EC50, IL-10R dimerization; 6 h
T1 sequence (Q13651 22-578): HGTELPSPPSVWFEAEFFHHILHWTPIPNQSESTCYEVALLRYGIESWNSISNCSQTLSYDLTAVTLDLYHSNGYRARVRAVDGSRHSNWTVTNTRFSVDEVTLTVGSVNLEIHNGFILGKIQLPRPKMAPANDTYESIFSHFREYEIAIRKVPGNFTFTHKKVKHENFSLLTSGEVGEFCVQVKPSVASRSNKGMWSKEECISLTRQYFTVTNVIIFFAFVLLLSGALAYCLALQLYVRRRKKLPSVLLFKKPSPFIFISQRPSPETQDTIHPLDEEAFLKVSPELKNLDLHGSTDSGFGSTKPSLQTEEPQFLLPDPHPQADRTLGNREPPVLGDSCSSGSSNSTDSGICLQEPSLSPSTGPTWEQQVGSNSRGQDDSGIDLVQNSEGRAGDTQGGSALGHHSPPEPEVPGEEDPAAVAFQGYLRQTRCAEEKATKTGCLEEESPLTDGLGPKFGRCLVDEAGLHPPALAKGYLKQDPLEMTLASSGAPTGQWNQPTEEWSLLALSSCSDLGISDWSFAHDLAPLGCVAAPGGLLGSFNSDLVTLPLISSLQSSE
T1 sequence (Q08334 20-325): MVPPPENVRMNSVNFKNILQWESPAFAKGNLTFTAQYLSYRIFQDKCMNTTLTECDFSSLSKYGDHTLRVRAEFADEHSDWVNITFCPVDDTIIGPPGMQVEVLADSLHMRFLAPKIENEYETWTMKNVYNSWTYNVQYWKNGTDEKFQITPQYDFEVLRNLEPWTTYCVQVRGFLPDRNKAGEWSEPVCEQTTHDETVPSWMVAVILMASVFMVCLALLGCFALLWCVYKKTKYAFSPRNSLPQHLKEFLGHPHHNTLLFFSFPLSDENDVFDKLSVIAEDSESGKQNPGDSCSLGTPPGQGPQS

[6] = secondary formulation buffer screen, 0.3% Poloxamer
[7] = Control: Capto Q ImpRes, CHT gradient B/E (Table 59)
[8] = Control: Capto Q, CHT (Linear elution), based on historical data (Table 60)
[9] = PT1: Capto Q, S-650F, CHT (FT mode) (Table 60)
[10] = PT2: Capto Q ImpRes, CHT step B/E 80 mM NaPi, S-650F (Table 59)
[11] = PT2: Capto Q, CHT (Step elution), S-650F (Table 60)
[12] = PT3: S-650F, Capto Q, CHT (FT mode) (Table 60)

B1: IL-10 delivery construct: recombinant homodimeric fusion protein: N-terminal methionine, cholix386 domain, polyGlySer spacer, recombinant human IL-10 (protein)
chain: MVEEALNIFDECRSPCSLTPEPGKPIQSKLSIPSDVVLDEGVLYYSMTINDEQNDIKDEDKGESIITIGEFATVRATRHYVNQDAPFGVIHLDITTENGTKTYSYNRKEGEFAINWLVPIGEDSPASIKISVDELDQQRNIIEVPKLYSIDLDNQTLEQWKTQGNVSFSVTRPEHNIAISWPSVSYKAAQKEGSRHKRWAHWHTGLALCWLVPMDAIYNYITQQNCTLGDNWFGGSYETVAGTPKVITVKQGIEQKPVEQRIHFSKGNAMSALAAHRVCGVPLETLARSRKPRDLTDDLSCAYQAQNIVSLFVATRILFSHLDSVFTLNLDEQEPEVAERLSDLRRINENNPGMVTQVLTVARQIYNDYVTHHPGLTPEQTSAGAQAGGGGSGGGGSGGGGSPGQGTQSENSCTHFPGNLPNMLRDLRDAFSRVKTFFQMKDQLDNLLLKESLLEDFKGYLGCQALSEMIQFYLEEVMPQAENQDPDIKAHVNSLGENLKTLRLRLRRCHRFLPCENKSKAVEQVKNAFNKLQEKGIYKAMSEFDIFINYIEAYMTMKIRN
modifications: homodimer
stability with respect to aggregation ([1]; initial lyophilization feasibility study, conditions of TABLE 9): more stable at pH7.5 with sucrose and glycine | Pre-Lyophilization (%) Dimer [1, 6]: 89.2% | Pre-Lyophilization (%) HMW [1, 6]: 2.6% | Pre-Lyophilization (%) Monomer [1, 6]: 8.2% | robustness of dimer to compaction into tablet [2]: robust to compaction and granulation, although some aggregation was observed in final tablet form | IL-1Ra concentration in colonic tissue ([3]; 1, 3, 10 mg): not further augmented | total IL-10 in colonic tissue ([3]; 1, 3, 10 mg): dose-dependent increase in total IL-10 | colonic MMP1, MMP3, MMP19 ([3]; 8 h): also upregulated | colonic TIMP1, tissue repair and anti-microbial genes ([3]; 8 h): also increased | colonic anti-inflammatory genes (CD163, miR24-2, NOX1 ...) ([3]; 8 h): upregulated a number of anti-inflammatory genes | colonic pro-inflammatory genes (MHCII, PLA2G2D, CCL20, CCL13) ([3]; 8 h): decreased a number of pro-inflammatory genes | colonic expression of CYP1A1 ([3]; 8 h, 12-hour fast prior to treatment): downregulated | colonic tissue pSTAT3/STAT3 ([3]; all doses tested): Higher ratios of colonic tissue pSTAT3/STAT3 | induction of pro-inflammatory cytokines in colonic tissue ([3]; cynomolgus monkey, in vivo): not observed | time of peak total IL-10 in colonic tissue ([3]; first sampling time point): 15 min | Purity [4, 7]: 78.2 | Yield [4, 7]: 68 mg | Endotoxin [4, 8]: *8 EU/mg | Purity [4, 8]: *85% | Endotoxin [4, 9]: 8.9 EU/mg | Purity [4, 9]: 92% | Purity [4, 10]: 78.5% | Yield [4, 10]: 26 mg | Endotoxin [4, 11]: 5 EU/mg | Purity [4, 11]: 91% | Endotoxin [4, 12]: 0.4 EU/mg | Purity [4, 12]: 96% | EC50 [5]: 0.971 nM
